PMC2836974 (Molecular Biology of the Cell, 2010)

What was measured:
[1] = target: T1, C-terminal-truncated Rap1 (amino acids 1-169), GST fusion, loaded with mGppNHp (Dictyostelium discoideum, UniProt P18613 1-169); test: guanine nucleotide dissociation inhibition
T1 sequence: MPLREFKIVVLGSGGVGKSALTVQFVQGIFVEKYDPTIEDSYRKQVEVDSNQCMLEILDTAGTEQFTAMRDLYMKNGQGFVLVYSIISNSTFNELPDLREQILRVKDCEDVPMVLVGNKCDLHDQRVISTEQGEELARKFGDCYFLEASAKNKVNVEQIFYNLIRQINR

[2] = target: RasG, GST fusion, loaded with mGppNHp (Dictyostelium discoideum, UniProt P15064 1-189); test: guanine nucleotide dissociation inhibition
RasG, GST fusion, loaded with mGppNHp, sequence (P15064 whole entry, the tested form may be a part): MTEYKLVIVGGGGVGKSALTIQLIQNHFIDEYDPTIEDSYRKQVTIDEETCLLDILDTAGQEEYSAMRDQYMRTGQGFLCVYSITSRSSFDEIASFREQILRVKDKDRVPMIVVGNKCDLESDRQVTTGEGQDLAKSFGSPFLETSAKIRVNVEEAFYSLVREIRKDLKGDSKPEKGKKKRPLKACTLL

B1: PI3K2-RBD (RBD domain of PI3K2, amino acids 757-918) (domain or fragment)
chain: GHIQAELEIFELIGTSFTRVLDQGQEVVSFRRDFAQFRLSNFTSTRNDLSQMIYVSSEPLPLTIPNKITIMVLLPGDGKIIKRVDCCPNSSVGDVKKEIFKKFAMIDRVHTQGKTQDDFVLKVTGFREYILCIHELGNLTSRQRFYPTGSGGDFSLMDYDYI
**Q.** B1 was tested. Which Kd [1] did it give?
**A.** 40 µM

**Q.** And the Kd [2]?
**A.** 24 µM
